A short description of this data set: Zeta potential measured using Malvern Zetasizer. It is filed as physicochemical. The following applies: 2 ml sample; alkaline (KOH) aqueous medium. The method, then:
The Zeta Potential was measured using Malvern Zetasizer (2 ml sample). […] The error bar of ±0.2 mV […]. […] Usually Proteins tend to destabilise/degrade in the presence of strong alkalis like KOH but the stability of the complex, so prepared, was confirmed by ^1H NMR. […] Surface charge around protein changes with change with complex.

In the case of sericin, the “Zeta Potential” value is recorded as −15±0.2 mV.
